The labels stand for the following.
B1: Anti-cTnI-21C5 monoclonal antibody (recombinant) (antibody, mouse IgG2b, V domains shown)
VH: EVQLQQSGPELVKPGASVKMSCKASGYSFTLYVVHWVKQKPGQGLEWIGYIQPYLDGTRYNEKFKGKATLTVDKSSSTAFMELSSLTSEDSAVYYCARTGYGGYGLAWLAYWGQGTLVTVSA
VL: QAVVIQESALTTSPGETVTLTCRSSSGAATTSQYANWVQEKPDHLFTGLIGGSNNRAPGVPARFSGSLIGDKAALTITGAQTEDEAIYFCAIVYSNHWVFGGGTKLTVLG
notes: also called WT; Sample 1
B2: Mutation 1-11 (antibody, V domains shown)
VH: B1 VH with S28T, V34I, Q52N, L55I, R59K, T99S
VL: B1 VL with S26T, A29V, Q33N, N54Q, I92L, H97N
notes: Built as m8
B3: Mutation 1-19 (antibody, V domains shown)
VH: B1 VH with S28T, L31I, V34L, Q52N, R59K, T99S, G103N
VL: B1 VL with S26T, A29V, Q33N, N54Q, I92L, H97Q
notes: Built as m8
B4: Mutation 1-17 (antibody, V domains shown)
VH: B1 VH with S28T, V34I, Q52N, R59K, T99S
VL: B1 VL with S26T, Q33N, N54Q, I92L, H97Q
notes: Built as m8
B5: Mutation 1-49 (antibody, V domains shown)
VH: B1 VH with S28T, V34L, Q52N, R59K, T99S, G103N
VL: B1 VL with S26T, A29V, N54Q, I92L, H97N
notes: Built as m8
B6: Mutation 1-41 (antibody, V domains shown)
VH: B1 VH with S28T, V34I, Q52N, L55I, R59K, T99S, G103N
VL: B1 VL with S26T, A29V, Q33N, N54Q, I92L, H97Q
notes: Built as m8
B7: Mutation 1 (antibody, V domains shown)
VH: B1 VH with S28T, R59K, T99S
VL: B1 VL with S26T, I92L
notes: CDR mutant of WT
B8: Mutation 1-55 (antibody, V domains shown)
VH: B1 VH with S28T, L31I, Q52Y, L55I, R59K, T99S
VL: B1 VL with S26T, A29V, N54Q, I92L, H97N
notes: Built as m8
B9: Mutation 2 (antibody, V domains shown)
VH: B1 VH with R59K, T99S
VL: B1 VL with S26T, A57V
notes: Built as m3, with this row's residues
B10: Mutation 3 (antibody, V domains shown)
VH: B1 VH with S28T, R59H, T99S
VL: B1 VL with A57I, I92A
notes: as for B9

Positions count from the first letter of the chain named.

For the first assay, the target named is T1, cTnI quality control product recombinant protein (human, UniProt P19429 2-210, limits assumed).
T1 construct: treated as the same molecule; also called cTnI antigen; cardiac troponin I
T1 sequence (P19429 2-210 limits assumed): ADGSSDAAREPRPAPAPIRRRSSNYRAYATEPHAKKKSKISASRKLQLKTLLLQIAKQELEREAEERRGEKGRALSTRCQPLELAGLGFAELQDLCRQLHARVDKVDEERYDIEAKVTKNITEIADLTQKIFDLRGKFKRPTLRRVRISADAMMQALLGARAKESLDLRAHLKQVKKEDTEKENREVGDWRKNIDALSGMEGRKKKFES
In words: AMC sensor, antibody immobilised, cTnI in solution. As to the method: Operating process: it is equilibrated in Buffer 1 (PBST) for 60 s, the antibody is immobilized in an antibody solution for 300 s, incubated in Buffer 2 (PBST) for 180 s, bound in antigen solution for 420 s, dissociated in the Buffer 2 for 1200 s, 10 mM of GLY solution with pH 1.69 and Buffer 3 are used for sensor regeneration, and data is output. KD represents an equilibrium dissociation constant, namely the affinity; Kon represents a binding rate; and Kd is represents a dissociation rate.
As to B1, the Kd (commonly the free concentration of one partner at which half of the binding sites on the other are occupied at equilibrium, for simple one-to-one binding) stood at 70.9 nM; the koff (in general, the rate constant with which the complex falls apart) stood at 0.0034 s⁻¹; the kon – broadly, the second-order rate constant of association – stood at 48000 M⁻¹ s⁻¹.
On to B2, for which the Kd came out at 4.23 nM, the off-rate constant (koff) was determined as 0.000142 s⁻¹ and the kon was found to be 33500 M⁻¹ s⁻¹.
For B3 the same measures were 4.81 nM, 0.000274 s⁻¹ and 57000 M⁻¹ s⁻¹.
Taken in the same sequence, the figures for B4 were 7.37 nM, 0.000237 s⁻¹ and 32100 M⁻¹ s⁻¹.
For B5 the same measures were 1.51 nM, 0.000134 s⁻¹ and 88400 M⁻¹ s⁻¹.
As to B6, the Kd is 7.89 nM, the koff stood at 0.000647 s⁻¹ and the kon was found to be 82000 M⁻¹ s⁻¹.
Taken in the same sequence, the figures for B7 were 4.2 nM, 0.000214 s⁻¹ and 51000 M⁻¹ s⁻¹.
For the molecule B8, the Kd was determined as 4.31 nM, the koff stood at 0.000239 s⁻¹ and the kon amounted to 55400 M⁻¹ s⁻¹.

A further assay addresses T1, cTnI quality control product …. In words: sandwich ELISA, antibody 0.457 ng/ml on anti-mouse IgG, cTnI 0.15 ug/ml, HRP second mAb. The procedure: (§1) After mutation, the antibody activity is detected. 1 μg/ml of goat anti-mouse IgG is diluted with coating solution to coat a microwell plate, 100 μL per well, and overnight at 4 DEG C.; on the next day, it is washed twice with washing solution, and patted dry; blocking solution (20% BSA+80% PBS) is added, 120 μL per well, 37 DEG C., and 1 h, and patted dry; a diluted cTnI monoclonal antibody is added, 100 μL/well, 37 DEG C., and 60 min; liquid in the plate is shaken off, patted dry, and 20% of mouse negative blood is added for blocking, 120 μl per well, 37 DEG C., 1 h; liquid in the plate is shaken off, patted dry, a diluted cTnI antigen (0.15 μg/ml) is added, 100 μL per well, 37 DEG C., and 40 min; it is washed for 5 times with the washing solution, and patted dry; another strain of the cTnI monoclonal antibody (1:5K) labeled with HRP is added, 100 μL per well, 37 DEG C., and 30 min; color developing solution A (50 μL/well) is added, color developing solution B (50 μL/well) is added, 10 min; stop solution is added, 50 μL/well; and a OD value is read at 450 nm (refer to 630 nm) on a microplate reader.
For orientation: ELISA stands for enzyme-linked immunosorbent assay.
Regarding B1, the “OD450 (ref. 630 nm)” value was 0.365 OD.
On to B7, for which the “OD450 (ref. 630 nm)” value was 0.524 OD.
Still for that read-out and setting: to B9 belongs 0.211 OD.

Another assay shares this target. Nature of the assay: sandwich ELISA, antibody 1.372 ng/ml on anti-mouse IgG, cTnI 0.15 ug/ml, HRP second mAb. As to the method:
as §1
On to B1, for which the “OD450 (ref. 630 nm)” value was 0.612 OD.
The same measure, in the same setting: to B7 belongs 0.94 OD; to B9, 0.421 OD; to B10, 0.15 OD.

For a further assay the target is unchanged. Nature of the assay: sandwich ELISA, antibody 4.115 ng/ml on anti-mouse IgG, cTnI 0.15 ug/ml, HRP second mAb. The procedure: as §1
For the molecule B1, the “OD450 (ref. 630 nm)” value is 1.19 OD.
Same read-out and setting: to B7 belongs 1.89 OD; to B9, 1.51 OD; to B10, 0.347 OD.

The target is the same in another assay. In words: sandwich ELISA, antibody 12.346 ng/ml on anti-mouse IgG, cTnI 0.15 ug/ml, HRP second mAb. As to the method:
as §1
Take B1: the “OD450 (ref. 630 nm)” value came out at 1.97 OD.
In the case of B7, the “OD450 (ref. 630 nm)” value came out at 2.24 OD.
On the same count and under the same terms, with B9 the figure was 1.94 OD; with B10, 0.824 OD.

The target is the same in a further assay. In words: sandwich ELISA, antibody 37.037 ng/ml on anti-mouse IgG, cTnI 0.15 ug/ml, HRP second mAb. The procedure: as §1
With B1, the “OD450 (ref. 630 nm)” value was determined as 2.16 OD.
For the molecule B7, the “OD450 (ref. 630 nm)” value worked out at 2.33 OD.
Still for that read-out and setting: with B9 the figure was 2.1 OD; with B10, 1.58 OD.

Another assay shares this target. In words: sandwich ELISA, antibody 0.000 ng/ml (blank of this series), cTnI 0.15 ug/ml, HRP second mAb. The procedure:
as §1
Consider B1, for which the “OD450 (ref. 630 nm)” value came to 0.13 OD.
On the same count and under the same terms, with B7 the figure was 0.114 OD; with B9, 0.117 OD.

For the origin of these results see patent US20220033484A1 (FAPON BIOTECH, published 2022).
